Source: article PMC8204306 (ACS Infectious Diseases, 2021)

Experiments:
[1] = target: ChsB1 (Mycobacterium tuberculosis, UniProt O53547)
[2] = substrate: CCCCC[C@@H](O)CC(=O)SCCNC(=O)CCNC(=O)[C@H](O)C(C)(C)COP(=O)(O)OP(=O)(O)OC[C@H]1O[C@@H](n2cnc3c(N)ncnc32)[C@H](O)[C@@H]1OP(=O)(O)O; assay: purified protein; settings: pH 8.5; 25.0 °C
[3] = substrate: C[C@@H]([C@H]1CC[C@H]2[C@@H]3CCC4=CC(=O)CC[C@]4(C)[C@H]3CC[C@]12C)[C@@H](O)CC(=O)SCCNC(=O)CCNC(=O)[C@H](O)C(C)(C)COP(=O)(O)OP(=O)(O)OC[C@H]1O[C@@H](n2cnc3c(N)ncnc32)[C@H](O)[C@@H]1OP(=O)(O)O; assay: purified protein; settings: pH 8.5; 25.0 °C
[4] = substrate: C[C@H](C(=O)CC(=O)SCCNC(=O)CCNC(=O)[C@H](O)C(C)(C)COP(=O)(O)OP(=O)(O)OC[C@H]1O[C@@H](n2cnc3c(N)ncnc32)[C@H](O)[C@@H]1OP(=O)(O)O)[C@H]1CC[C@H]2[C@@H]3CCC4=CC(=O)CC[C@]4(C)[C@H]3CC[C@]12C; assay: purified protein; settings: pH 8.5; 25.0 °C
[5] = substrate: C[C@]12CC[C@H]3[C@@H](CCC4=CC(=O)CC[C@@]43C)[C@@H]1CC[C@@H]2O; assay: purified protein; settings: pH 8.5; 25.0 °C
[6] = substrate: NC(=O)C1=CN([C@@H]2O[C@H](COP(=O)(O)OP(=O)(O)OC[C@H]3O[C@@H](n4cnc5c(N)ncnc54)[C@H](O)[C@@H]3O)[C@@H](O)[C@H]2O)C=CC1; assay: purified protein; settings: pH 8.5; 25.0 °C; varied: cofactor
[7] = substrate: NC(=O)c1ccc[n+]([C@@H]2O[C@H](COP(=O)(O)OP(=O)(O)OC[C@H]3O[C@@H](n4cnc5c(N)ncnc54)[C@H](O)[C@@H]3O)[C@@H](O)[C@H]2O)c1; assay: purified protein; settings: pH 8.5; 25.0 °C; varied: cofactor
[8] = substrate: CC(=CCC[C@@H](C)[C@H]1CC[C@H]2[C@@H]3CCC4=CC(=O)CC[C@]4(C)[C@H]3CC[C@]12C)C(=O)SCCNC(=O)CCNC(=O)[C@H](O)C(C)(C)COP(=O)(O)OP(=O)(O)OC[C@H]1O[C@@H](n2cnc3c(N)ncnc32)[C@H](O)[C@@H]1OP(=O)(O)O; assay: purified protein; settings: pH 7.4; 25.0 °C
[9] = substrate: CCCCC/C=C/C(=O)SCCNC(=O)CCNC(=O)[C@H](O)C(C)(C)COP(=O)(O)OP(=O)(O)OC[C@H]1O[C@@H](n2cnc3c(N)ncnc32)[C@H](O)[C@@H]1OP(=O)(O)O; assay: purified protein; settings: pH 7.4; 25.0 °C
[10] = substrate: C[C@H](/C=C/C(=O)SCCNC(=O)CCNC(=O)[C@H](O)C(C)(C)COP(=O)(O)OP(=O)(O)OC[C@H]1O[C@@H](n2cnc3c(N)ncnc32)[C@H](O)[C@@H]1OP(=O)(O)O)[C@H]1CC[C@H]2[C@@H]3CCC4=CC(=O)CC[C@]4(C)[C@H]3CC[C@]12C; assay: purified protein; settings: pH 7.4; 25.0 °C

NC(=O)c1ccc[n+]([C@@H]2O[C@H](COP(=O)(O)OP(=O)(O)OC[C@H]3O[C@@H](n4cnc5c(N)ncnc54)[C@H](O)[C@@H]3O)[C@@H](O)[C@H]2O)c1 [NAD^+]
X-ray co-crystal structure, 2.21 Å [1]: Co-crystallization of NAD^+ and ChsB1 yielded cubic crystals by sitting drop vapor diffusion

B1: ChsB1 (Mycobacterium tuberculosis H37Rv) (protein)
chain: MKLTESNRSPRTTNTTDLSGKVAVVTGAAAGLGRAEALGLARLGATVVVNDVASALDASDVVDEIGAAAADAGAKAVAVAGDISQRATADELLASAVGLGGLDIVVNNAGITRDRMLFNMSDEEWDAVIAVHLRGHFLLTRNAAAYWRDKAKDAEGGSVFGRLVNTSSEAGLVGPVGQANYAAAKAGITALTLSAARALGRYGVCANVICPRARTAMTADVFGAAPDVEAGQIDPLSPQHVVSLVQFLASPAAAEVNGQVFIVYGPQVTLVSPPHMERRFSADGTSWDPTELTATLRDYFAGRDPEQSFSATDLMRQ
Km [2]: 169 ± 21 µM | kcat/Km [2]: 15000 M⁻¹ s⁻¹ | Km [3]: 5.3 ± 1 µM | kcat/Km [3]: 1.7e+06 M⁻¹ s⁻¹ | Km [4]: 25 ± 5 µM | kcat/Km [4]: 64000 M⁻¹ s⁻¹ | Km [5]: 369 ± 75 µM | kcat/Km [5]: 810 M⁻¹ s⁻¹ | Km [6]: 40 ± 6 µM | Km [7]: 70 ± 10 µM

B2: ChsH3 (Mycobacterium tuberculosis H37Rv) (protein)
chain: MPIDLDVALGAQLPPVEFSWTSTDVQLYQLGLGAGSDPMNPRELSYLADDTPQVLPTFGNVAATFHLTTPPTVQFPGIDIELSKVLHASERVEVPAPLPPSGSARAVTRFTDIWDKGKAAVICSETTATTPDGLLLWTQKRSIYARGEGGFGGKRGPSGSDVAPERAPDLQVAMPILPQQALLYRLCGDRNPLHSDPEFAAAAGFPRPILHGLCTYGMTCKAIVDALLDSDATAVAGYGARFAGVAYPGETLTVNVWKDGRRLVASVVAPTRDNAVVLSGVELVPA
Km [8]: 12 ± 6 µM | kcat/Km [8]: 120000 M⁻¹ s⁻¹ | Km [9]: 112 ± 12 µM | kcat/Km [9]: 1.5e+06 M⁻¹ s⁻¹ | Km [10]: 55 ± 5 µM | kcat/Km [10]: 2e+06 M⁻¹ s⁻¹
